Laboratory results published in patent US20050032221A1, “Dominant negative variants of methionine aminopeptidase 2 (MetAP2) and clinical uses thereof” (priority 2001, published 2005).

Key:
peptide substrate (MGMM) = test: MetAP activity assay of immunopurified HA-tagged yeast MetAP2 with Met-Gly-Met-Met; assay type: biochemical; details: immunopurified HA-tagged enzyme from map1Δ; 2 mM Met-Gly-Met-Met
Description: […]. Approximately 2 μg of purified wild-type MetAP2 (WT) and MetAP2 (H174A) was separated on a 10% SDS-PAGE gel and visualized with coomassie blue staining. Specific activity for the wild-type MetAP2 was 11±0.5 U/mg.
The purification of HA-tagged wild-type and mutant yeast MetAP2 from a yeast map1Δ strain (Klinkenberg et al., Arch. Biochem. Biophys. 347:193-200, 1997) was performed as previously described (Li and Chang, 1995) with slight modifications. A 1-liter yeast culture was grown aerobically at 30° C. in SG/Leu^− medium. Cells were collected at an OD600˜1-2 by centrifugation at 1500×g for 5 min. The pellet was rinsed with buffer XL (10 mM Hepes, pH 7.4; 1.5 mM MgCl2, 10% Glycerol [v/v]) plus 100 mM NaCl and fresh protease inhibitors (1 μg/ml aprotinin, 1 μg/ml leupeptin, 0.7 μg/ml pepstatin A, 1 mM phenylmethylsulfonyl fluoride). Cells were disrupted by vortexing (5 cycles of 1 min vortexing, 1 min on ice) with 0.5-mm acid-washed glass beads (Biospec Products, Inc.,). The lysate was then cleared at 10,000×g for 20 min at 4° C. Cleared lysate was applied to a Protein-Sepharose G column (Pharmacia) previously rinsed and pre-equilibrated with buffer XL and an anti-hemagglutinin epitope ([…]; SEQ ID NO:23) monoclonal antibody (BabCO). After loading, the column was washed with buffer XL until OD280<0.01. […]

yeast map1Δ strain = test: Yeast growth assay, map1Δ, expression under GAL1 promoter; assay type: cell-based, yeast (S. cerevisiae); details: galactose plates, 4 days at 30° C.
Description: A haploid yeast map1Δ strain was transformed to leucine prototrophy with p425GAL1/MAP2 wild-type (WT), p425GAL1/map2 (H174A), or p425GAL1 vector alone (V). Each strain was grown to mid-logarithmic phase at 30° C. in minimal synthetic raffinose medium lacking leucine. Approximately 2×10^5 cells (ABS600) were then streaked onto minimal synthetic plates lacking leucine and supplemented with (A) glucose or (B) galactose. Plates were incubated for 4 days at 30° C.
A haploid yeast map1Δ strain was transformed to leucine prototrophy with p425GAL1/MAP2 wild-type (WT), p425GAL1/map2 ([…]), p425GAL1/map2 (Δ2-57/H174A) or p425GAL1 vector alone (V). Each strain was grown to mid-logarithmic phase at 30° C. in minimal synthetic raffinose medium lacking leucine. […]
For relative growth comparison, strains were grown to mid-logarithmic phase in 5 ml of 2% raffinose minimal media lacking leucine and ˜2×10^5 cells (ABS600) were streaked onto SD/Leu^− or SG/Leu^− plates, then incubated for 4 days at 30° C. For quantitative comparison, a growth curve was obtained (FIG. 4). […] The ABS600 of each 1 mL culture was measured and diluted to an ABS600 of 0.2 in 5 mL of SG/Leu^−. Each 5 mL culture was then grown aerobically at 30° C. and the ABS600 was measured in triplicate at one-hour intervals.

B1: wild-type MetAP2: wild-type yeast MetAP2 with N-terminal hemagglutinin tag (SEQ ID NO:14) (protein, listed as Saccharomyces sp.)
chain: MTDAEIENSPASDLKELNLENEGVEQQDQAKADESDPVESKKKKNKKKKKKKSNVKKIELLFPDGKYPEGAWMDYHQDFNLQRTTDEESRYLKRDLERAEHWNDVRKGAEIHRRVRRAIKDRIVPGMKLMDIADMIENTTRKYTGAENLLAMEDPKSQGIGFPTGLSLNHCAAHFTPNAGDKTVLKYEDVMKVDYGVQVNGNIIDSAFTVSFDPQYDNLLAAVKDATYTGIKEAGIDVRLTDIGEAIQEVMESYEVEINGETYQVKPCRNLCGHSIAPYRIHGGKSVPIVKNGDTTKMEEGEHFAIETFGSTGRGYVTAGGEVSHYARSAEDHQVMPTLDSAKNLLKTIDRNFGTLPFCRRYLDRLGQEKYLFALNNLVRHGLVQDYPPLNDIPGSYTAQFEHTILLHAHKKEVVSKGDDYGKMRFQMASSLGIILL
modifications: N-terminal HA tag; Yeast MetAP2
Peptide substrate (MGMM)
  Specific activity: 11±0.5 U/mg
Yeast map1Δ strain
  colony size / growth relative to map1Δ with vector alone: largest observed
